Data reported in patent US11142588B2, “Polypeptides which bind C-X-C chemokine receptor type 4 (CXCR4) and methods of treating or reducing the risk of fibrosis and cancer” (AdAlta Limited, priority 2015, dated 2021).
Entries after “also recorded” stand apart in the source; their conditions may differ.

Experiments:
[1] = Binding to null lipoparticles (off-target control)
Protocol: (FIGS. 2A-2C, 5A-5C, 11A-11D, 17A-17B) Kinetic binding analysis of selected i-bodies with immobilized CXCR4 lipoparticles were performed at 25° C. using Biacore T200 instrument (GE Healthcare, Uppsala, Sweden). Streptavidin immobilization was performed in 1×HBS-P+ running buffer (10 mM HEPES, 150 mM NaCl, 0.05% [v/v] Tween-20). Amine coupling kit (GE Healthcare) and the instructions therein were utilized for the attachment of Streptavidin (Sigma; diluted to 100 μg/mL in 10 mM sodium acetate buffer pH 4.5) in all four channels on the sensor chip surface simultaneously, resulting in >6,000 RU of Streptavidin being coupled (1 RU=1 pg protein/mm^2). All binding experiments involving lipoparticles were performed with 1×HBS/BSA (10 mM HEPES, 150 mM NaCl, 1 mg/mL BSA) as instrument running buffer. Biotinylated CXCR4 lipoparticles (Integral Molecular, Cat #LEV-101B; 3.6 U/mL as described in WO 2005/042695) were typically diluted 1 in 20 in the running buffer and immobilized onto a Streptavidin containing channel by injecting at […] for 1,800 sec resulting in captured response levels of greater than 2,500 RU. […] In order to determine binding kinetics, serial dilutions (three-fold) of i-bodies diluted in 1×HBS/BSA were injected over immobilized lipoparticles with the association and dissociation phases monitored for 60 sec and 600 sec, respectively. […]

[2] = target: T1, CCR4 (Homo sapiens, UniProt P51679); assay: PathHunter (DiscoverX) β-arrestin assay, CCR4; type: cell-based
T1 sequence (P51679 1-360): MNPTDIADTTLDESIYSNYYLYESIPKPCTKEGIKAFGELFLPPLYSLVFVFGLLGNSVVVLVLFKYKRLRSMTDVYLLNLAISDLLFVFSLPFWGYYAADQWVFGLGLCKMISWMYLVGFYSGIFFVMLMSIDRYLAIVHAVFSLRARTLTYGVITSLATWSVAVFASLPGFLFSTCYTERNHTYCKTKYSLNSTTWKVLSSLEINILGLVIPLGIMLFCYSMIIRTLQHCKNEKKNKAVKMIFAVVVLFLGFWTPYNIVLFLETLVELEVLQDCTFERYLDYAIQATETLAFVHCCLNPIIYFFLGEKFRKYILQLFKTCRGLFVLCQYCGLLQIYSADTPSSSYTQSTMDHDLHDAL
Protocol: (FIG. 9) The PathHunter® β-Arrestin assay (DiscoveRx) was performed according to the manufacturer's protocol. Cells were seeded into white walled, 384-well tissue culture-treated microplates (Corning) and normalized at 5,000 cells (or 10,000 cells for CXCR4) in a total volume of […]. Cell growth was at 37° C. (5% CO2, 95% relative humidity). […] Agonists were then added at the EC80 concentration and incubation was continued at 37° C. for 90 min (or 180 min for CCR1). Assay signal was generated through a single addition of 15 μL (50% v/v) of PathHunter Detection reagent cocktail, followed by 1 h incubation at room temperature. Microplates were read following signal generation with a PerkinElmer Envision instrument for chemiluminescent signal detection of relative light units (RLU).

[3] = target: CCR5 positive lipoparticles (Homo sapiens, UniProt P51681); assay: Biacore SPR binding to CCR5 positive lipoparticles (off-target control)
[4] = target: CXCR4 (Homo sapiens, UniProt P61073); assay: β-arrestin BRET assay, antagonist mode with 100 nM SDF-1; type: cell-based; parameters: expressed in transfected cells; host or cells: HEK293FT
Source text: (FIGS. 3A-3F and 14) BRET was used in this study to assess the real-time kinetic profiles resulting from any consequent increase in proximity, building upon the previously validated monitoring of GPCR/β-arrestin interactions utilizing BRET. BRET occurs between a complementary Renilla luciferase (Rluc) variant as donor and green fluorescent protein variant as acceptor. Upon Rluc-catalyzed oxidation of the coelenterazine substrate (such as coelenterazine h for first generation BRET (BRET) or EnduRen for extended BRET (eBRET), energy is transferred to the acceptor if within 10 nm, resulting in acceptor light emission peaking at a characteristic wavelength. BRET (3-arrestin assays were carried out as described previously (See, H. B., Seeber, R. M., Kocan, M., Eidne, K. A. and Pfleger, K. D. (2011) ‘Application of G protein-coupled receptor-heteromer identification technology to monitor beta-arrestin recruitment to G protein-coupled receptor heteromers’, Assay Drug Dev Technol, 9(1), 21-30, 10.1089/adt.2010.0336). CXCR4/Rluc8 cDNA constructs were generated from plasmids containing the respective receptor cDNA tagged with Rluc kindly provided by Aron Chakera (Oxford University, United Kingdom). The β-arrestin 2/Venus cDNA construct was prepared previously from pCS2-Venus kindly provided by Atsushi Miyawaki (RIKEN Brain Science Institute, Wako-city, Japan). BRET technology in cells transiently expressing CXCR4/Rluc8 and β-arrestin2/Venus in the presence of 100 nM SDF-1 agonist was evaluated in the presence of the CXCR4 agonist SDF-1/CXCL12 and the i-bodies. HEK293FT cells were maintained at 37° C., 5% CO2 in Complete Media (Dulbecco's modified Eagle's medium containing 0.3 mg/mL glutamine, 100 IU/mL penicillin, and […] streptomycin; Gibco) supplemented with 10% fetal calf serum (FCS) and […] Geneticin (Gibco). Transfections were carried out 24 h after seeding using Genejuice (Novagen) according to manufacturer's instructions. Cells were harvested with 0.05% Trypsin-EDTA (Gibco). HEK293FT cells were transfected using FuGene6 (Promega). 5 μM coelenterazine h (Promega) in HBSS was used as the luciferase substrate solution. Cells were harvested 24 h post-transfection in HEPES-buffered phenol red-free Complete Medium containing 5% FCS and added to a poly-L-lysine-coated white 96-well plate (Nunc). Dose-response curves were generated using BRET, with medium in the plate being replaced with PBS containing […] coelenterazine h (Molecular Probes) and assays carried out immediately. For these assays, 48 h post-transfection, the plate was incubated at […], 5% CO2 for 2 h with […] EnduRen (Promega) to ensure substrate equilibrium was reached. All BRET measurements were taken at 37° C. using the VICTOR Light plate reader with Wallac 1420 software (PerkinElmer). Filtered light emissions were sequentially measured at 400-475 and 520-540 nm. The BRET signal was calculated by subtracting the ratio of 520-540 nm emission over 400-475 nm emission for a vehicle-treated cell sample from the same ratio for a second aliquot of the same cells treated with agonist (in this instance in the presence of SDF-1 or CXCL12) and i-body (ADCX-99, ADCX-272, ACDX-6, ACDX-306, ADCX-668) at various concentrations. Data are mean±S.E.M. of four independent experiments carried out in duplicate.
Binding of the i-bodies to CXCR4 were examined in a β-Arrestin BRET assay as described in See, Heng B et al (2011) Assay and Drug Development Technologies 9(1):21-30. The i-bodes were examined at ten concentrations with and without 100 nM SDF-1 with the addition of ‘vehicle’ and ‘SDF-1+vehicle’ controls in order to characterise if the i-bodies are agonist or antagonists of CXCR4 activity.

CXCR4, sequence (P61073 whole entry): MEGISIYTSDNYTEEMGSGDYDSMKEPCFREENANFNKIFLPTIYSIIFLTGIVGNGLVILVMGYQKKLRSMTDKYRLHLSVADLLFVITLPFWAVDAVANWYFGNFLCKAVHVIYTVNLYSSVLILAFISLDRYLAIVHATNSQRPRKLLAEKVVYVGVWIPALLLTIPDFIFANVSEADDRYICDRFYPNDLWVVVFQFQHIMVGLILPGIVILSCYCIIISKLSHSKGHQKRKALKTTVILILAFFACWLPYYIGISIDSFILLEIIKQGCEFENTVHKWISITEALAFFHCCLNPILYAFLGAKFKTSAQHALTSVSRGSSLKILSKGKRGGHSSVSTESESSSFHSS
CCR5 positive lipoparticles, sequence (P51681 whole entry): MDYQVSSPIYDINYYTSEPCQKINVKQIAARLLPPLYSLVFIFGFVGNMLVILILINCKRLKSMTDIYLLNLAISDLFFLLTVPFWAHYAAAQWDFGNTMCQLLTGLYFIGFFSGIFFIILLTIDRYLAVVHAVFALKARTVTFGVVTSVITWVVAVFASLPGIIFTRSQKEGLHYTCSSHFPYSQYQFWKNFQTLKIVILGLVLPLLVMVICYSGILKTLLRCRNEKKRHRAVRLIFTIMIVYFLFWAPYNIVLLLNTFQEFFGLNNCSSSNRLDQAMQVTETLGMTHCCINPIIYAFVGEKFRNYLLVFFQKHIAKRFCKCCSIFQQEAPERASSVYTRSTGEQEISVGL

CCR4 activity [2]: 34% | β-arrestin activity ([4]; various concentrations): some degree of inhibition
B1: ADCX-99: CXCR4 binding i-body, SEQ ID NO: 11, parent of affinity matured binders (protein)
chain: LQVDIVPSQGEISVGESKFFLCQVAGSGSDIRISWFSPNGEKLTPNQQRISVVWNDDSSSTLTIYNANIDDAGIYKCVVYRTGGYRHRALVLGEATVNVKIFQ
modifications: ADCX-99 protein sequence
binding to null lipoparticles [1]: did not bind; also recorded: very little binding | binding to CCR5 positive lipoparticles [3]: did not bind; also recorded: very little binding | IC50 (nM) in β-Arrestin BRET assay (Antagonist mode in the presence of 100 nM SDF-1) [4]: very weak effect; also recorded: No activity
